According to patent US20080214462:

Target: factor X (FX) (UniProt P00742)
Sequence of UniProt P00742 (P00742 whole entry, looked up): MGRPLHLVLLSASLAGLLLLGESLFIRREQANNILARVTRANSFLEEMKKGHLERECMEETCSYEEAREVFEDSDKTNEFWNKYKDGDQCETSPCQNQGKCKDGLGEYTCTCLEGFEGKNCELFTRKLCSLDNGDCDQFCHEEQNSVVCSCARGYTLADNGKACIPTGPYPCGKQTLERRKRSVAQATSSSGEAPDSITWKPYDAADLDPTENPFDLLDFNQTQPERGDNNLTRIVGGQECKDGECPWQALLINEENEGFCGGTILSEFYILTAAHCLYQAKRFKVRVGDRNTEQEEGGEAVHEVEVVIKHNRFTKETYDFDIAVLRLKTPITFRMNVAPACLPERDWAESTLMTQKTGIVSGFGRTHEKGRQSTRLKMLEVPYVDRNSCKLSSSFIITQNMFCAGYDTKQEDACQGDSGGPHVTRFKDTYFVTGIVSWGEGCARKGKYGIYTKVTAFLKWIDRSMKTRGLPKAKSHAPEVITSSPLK

Q: With activated plasma derived FIX (pdFIXa) as the substance, how does the aPTT in FIX-depleted plasma: pdFIXa equivalent activity given for 0.5 µg/mL of FIXa protein read?
A: Its aPTT in FIX-depleted plasma: pdFIXa equivalent activity given for 0.5 µg/mL of FIXa protein is 1.1 µg/mL.
